# Laboratory results reported in patent publication US11872307B2, “Liquisoft capsules” (PATHEON SOFTGELS INC., priority 2015, dated 2024).
# Experiment: Appearance / precipitation of matrix fill
# Type: physicochemical
# Conditions: dextromethorphan hydrobromide 30 mg, menthol 5 mg
# Protocol: Formulas 14, 15, and 16 were the initial matrix prototypes for dextromethorphan hydrobromide (30 mg) and menthol (5 mg). Three different taste-masking agents were tested: mannitol, thaumatin (Talin®) and glycyrrhizic acid salts (MagnaSweet®).
# Thaumatin and glycyrrhizic acid salts were employed with the lower active pharmaceutical ingredient dose, individually and as a combination. […] Thus, the glycyrrhizic acid salts were not further assessed for chemical stability. Thus, Formula 19 was formulated using thaumatin and used for excipient compatibility studies.
substance,measurement,value
Thaumatin,appearance of matrix fill,hazy appearance
